Results as given in patent publication US20240279318A1 (NANJING LEGEND BIOTECH, published 2024).
Numbering of substitutions follows the chain as printed.

How the values were obtained:
[1] = biological target: T1, AFP158/HLA-A*02:01 complex (human); experiment: SPR; vs AS170036 VL1VH1;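 further: crude scFv captured on sensor chip, peptide–HLA complex flowed over at several concentrations, KD estimated from association and dissociation kinetic rates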
T1 construct: biotinylated on the BSP by BirA for ELISA and panning; also called biotinylated AFP158/HLA-A*02:01 complex; Bio-AFP158

[2] = biological target: T1, AFP158/HLA-A*02:01 complex; experiment: SPR, crude scFv captured;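 further: Peptide–MHC complex flowed at several concentrations over sensorchip-captured scFv, Kd derived from on- and off-rates obtained from the association and dissociation curves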
[3] = biological target: T2, AFP158/HLA-A*02:01 complex (human); experiment: SPR, KD ratio to AS170036 VL1VH1;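 further: crude scFv captured on a sensor chip, peptide–HLA complex passed over at several concentrations, association then buffer dissociation, KD derived from on- and off-rates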
T2 construct: flowed over the chip in SPR; also called AFP158 pro
Procedure: (§1) The experiment was carried out as follows. The crude scFv protein were captured onto the sensorchip. Different concentrations (320, 160, 40 nM) of AFP158/HLA-A*02:01 complex flowed over the sensorchip surface, and were allowed to bind the antibody fragment for 100 s followed by injection of the running buffer to allow dissociation of the complex. On-rate (kd) and off-rate (kd) were calculated based on association and dissociation curve, and were used to estimate the equilibrium dissociation constant (KD).

[4] = biological target: T2, AFP158/HLA-A*02:01 complex; experiment: SPR, scFv captured, pMHC in flow;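 further: complex injected at several concentrations over crude scFv, association then running-buffer dissociation, KD estimated from kinetic on- and off-rate constants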
Procedure: as §1

B1: AS170036 VL1VH1 HL107Q (scFv)
scFv: QSALTQPRSVSGSPGQSVTISCAGTSSDVGSENYVSWYQQHPGKAPKLMIYQVNKRASGVPDRFSGSKSGNTASLTISGLQAEDEADYYCASYRSSDHNIVFGGGTKLTVLGGGGSGGGGSGGGGSEVQLVESGGGLVQPGGSLRLSCAASGFTFSSYAMSWVRQAPGKGLEWVSTINSGTGSPYYADSVKGRFTISRDNSKNTLYLQMNSLRAEDTAVYYCAKNFFDGSWFQGPPAMDYWGQGTLVTVSSHHHHHH
Affinity increase [1]: 0.2 fold | Kd [2]: 1600 nM

B2: AS170036 VL1VH1 HP109N (scFv)
scFv: B1 scFv with Q233L, P235N
Affinity increase [1]: 0.1 fold | Kd [2]: 4500 nM

B3: LD97I (scFv)
scFv: B1 scFv with D97I, Q233L
notes: AS170036 VL1VH1 scFv mutein
Affinity increase [3]: 0.4 fold | Kd [4]: 650 nM

B4: AS170036 VL1VH1 HS57D (scFv)
scFv: B1 scFv with S183D, Q233L
Affinity increase [1]: 1.2 fold | Kd [2]: 200 nM

B5: AS170036 VL1VH1 HL107V (scFv)
scFv: B1 scFv with Q233V
Affinity increase [1]: 0.1 fold | Kd [2]: 2500 nM

B6: AS170036 VL1VH1 HP110A (scFv)
scFv: B1 scFv with Q233L, P236A
Affinity increase [1]: 1.3 fold | Kd [2]: 210 nM

B7: LD97M (scFv)
scFv: B1 scFv with D97M, Q233L
notes: AS170036 VL1VH1 scFv mutein
Affinity increase [3]: 0.4 fold | Kd [4]: 590 nM

B8: AS170036 VL1VH1 HW105F (scFv)
scFv: B1 scFv with W231F, Q233L
Affinity increase [1]: 0.2 fold | Kd [2]: 1400 nM

B9: AS170036 VL1VH1 HP58W (scFv)
scFv: B1 scFv with P184W, Q233L
Affinity increase [1]: 0.1 fold | Kd [2]: 2700 nM

B10: AS170036 VL1VH1 HS57F (scFv)
scFv: B1 scFv with S183F, Q233L
Affinity increase [1]: 1.4 fold | Kd [2]: 180 nM

B11: AS170036 VL1VH1 HS53T (scFv)
scFv: B1 scFv with S179T, Q233L
Affinity increase [1]: 0.4 fold | Kd [2]: 650 nM

B12: AS170036 VL1VH1 HS57A (scFv)
scFv: B1 scFv with S183A, Q233L
Affinity increase [1]: 1.2 fold | Kd [2]: 210 nM

B13: AS170036 VL1VH1 HP110Q (scFv)
scFv: B1 scFv with Q233L, P236Q
Affinity increase [1]: 0.9 fold | Kd [2]: 300 nM

B14: LD97P (scFv)
scFv: B1 scFv with D97P, Q233L
notes: AS170036 VL1VH1 scFv mutein
Affinity increase [3]: 0.3 fold | Kd [4]: 790 nM

B15: AS170036 VL1VH1 HP110D (scFv)
scFv: B1 scFv with Q233L, P236D
Affinity increase [1]: 0.5 fold | Kd [2]: 540 nM

B16: AS170036 VL1VH1 HP110I (scFv)
scFv: B1 scFv with Q233L, P236I
Affinity increase [1]: 0.2 fold | Kd [2]: 1500 nM

B17: AS170036 VL1VH1 HP110S (scFv)
scFv: B1 scFv with Q233L, P236S
Affinity increase [1]: 0.8 fold | Kd [2]: 300 nM

B18: AS170036 VL1VH1 HP110G (scFv)
scFv: B1 scFv with Q233L, P236G
Affinity increase [1]: 1 fold | Kd [2]: 260 nM

B19: AS170036 VL1VH1 HP58F (scFv)
scFv: B1 scFv with P184F, Q233L
Affinity increase [1]: 0.2 fold | Kd [2]: 1700 nM

B20: AS170036 VL1VH1 HP110E (scFv)
scFv: B1 scFv with Q233L, P236E
Affinity increase [1]: 1.8 fold | Kd [2]: 150 nM

B21: AS170036 VL1VH1 HP58E (scFv)
scFv: B1 scFv with P184E, Q233L
Affinity increase [1]: 0.5 fold | Kd [2]: 600 nM

B22: AS170036 VL1VH1 HW105M (scFv)
scFv: B1 scFv with W231M, Q233L
Affinity increase [1]: 0.2 fold | Kd [2]: 1200 nM

B23: LD97E (scFv)
scFv: B1 scFv with D97E, Q233L
notes: AS170036 VL1VH1 scFv mutein
Affinity increase [3]: 0.4 fold | Kd [4]: 690 nM

B24: AS170036 VL1VH1 HP58D (scFv)
scFv: B1 scFv with P184D, Q233L
Affinity increase [1]: 0.4 fold | Kd [2]: 660 nM

B25: AS170036 VL1VH1 HP58V (scFv)
scFv: B1 scFv with P184V, Q233L
Affinity increase [1]: 0.2 fold | Kd [2]: 1200 nM

B26: AS170036 VL1VH1 HP58A (scFv)
scFv: B1 scFv with P184A, Q233L
Affinity increase [1]: 0.7 fold | Kd [2]: 380 nM

B27: AS170036 VL1VH1 HP58Q (scFv)
scFv: B1 scFv with P184Q, Q233L
Affinity increase [1]: 0.5 fold | Kd [2]: 500 nM

B28: AS170036 VL1VH1 HP58T (scFv)
scFv: B1 scFv with P184T, Q233L
Affinity increase [1]: 0.4 fold | Kd [2]: 750 nM

B29: AS170036 VL1VH1 HP109A (scFv)
scFv: B1 scFv with Q233L, P235A
Affinity increase [1]: 0.1 fold | Kd [2]: 2700 nM

B30: AS170036 VL1VH1 HP58K (scFv)
scFv: B1 scFv with P184K, Q233L
Affinity increase [1]: 0.3 fold | Kd [2]: 860 nM

B31: AS170036 VL1VH1 HP110L (scFv)
scFv: B1 scFv with Q233L, P236L
Affinity increase [1]: 0.2 fold | Kd [2]: 1500 nM

B32: AS170036 VL1VH1 HS53A (scFv)
scFv: B1 scFv with S179A, Q233L
Affinity increase [1]: 0.2 fold | Kd [2]: 1200 nM

B33: AS170036 VL1VH1 HP58Y (scFv)
scFv: B1 scFv with P184Y, Q233L
Affinity increase [1]: 0.1 fold | Kd [2]: 3500 nM

B34: AS170036 VL1VH1 HL107S (scFv)
scFv: B1 scFv with Q233S
Affinity increase [1]: 0.1 fold | Kd [2]: 4100 nM

B35: AS170036 VL1VH1 HP58R (scFv)
scFv: B1 scFv with P184R, Q233L
Affinity increase [1]: 0.2 fold | Kd [2]: 1200 nM

B36: AS170036 VL1VH1 HP110V (scFv)
scFv: B1 scFv with Q233L, P236V
Affinity increase [1]: 0.6 fold | Kd [2]: 400 nM

B37: AS170036 VL1VH1 HP58M (scFv)
scFv: B1 scFv with P184M, Q233L
Affinity increase [1]: 0.2 fold | Kd [2]: 1500 nM

B38: AS170036 VL1VH1 HP58N (scFv)
scFv: B1 scFv with P184N, Q233L
Affinity increase [1]: 0.2 fold | Kd [2]: 1500 nM

B39: AS170036 VL1VH1 HP110T (scFv)
scFv: B1 scFv with Q233L, P236T
Affinity increase [1]: 1.3 fold | Kd [2]: 180 nM

B40: AS170036 VL1VH1 HP58H (scFv)
scFv: B1 scFv with P184H, Q233L
Affinity increase [1]: 0.3 fold | Kd [2]: 1000 nM

B41: AS170036 VL1VH1 HS57N (scFv)
scFv: B1 scFv with S183N, Q233L
Affinity increase [1]: 1.5 fold | Kd [2]: 170 nM

B42: AS170036 VL1VH1 HP109T (scFv)
scFv: B1 scFv with Q233L, P235T
Affinity increase [1]: 0.1 fold | Kd [2]: 5400 nM

B43: AS170036 VL1VH1 HS57W (scFv)
scFv: B1 scFv with S183W, Q233L
Affinity increase [1]: 0.6 fold | Kd [2]: 380 nM

B44: AS170036 VL1VH1 HP58S (scFv)
scFv: B1 scFv with P184S, Q233L
Affinity increase [1]: 0.3 fold | Kd [2]: 780 nM

B45: AS170036 VL1VH1 HS57Y (scFv)
scFv: B1 scFv with S183Y, Q233L
Affinity increase [1]: 1.2 fold | Kd [2]: 200 nM

B46: LD97L (scFv)
scFv: B1 scFv with D97L, Q233L
notes: AS170036 VL1VH1 scFv mutein
Affinity increase [3]: 0.4 fold | Kd [4]: 640 nM

B47: AS170036 VL1VH1 HS57T (scFv)
scFv: B1 scFv with S183T, Q233L
Affinity increase [1]: 1.1 fold | Kd [2]: 220 nM

B48: AS170036 VL1VH1 HL107T (scFv)
scFv: B1 scFv with Q233T
Affinity increase [1]: 0.1 fold | Kd [2]: 2800 nM

B49: AS170036 VL1VH1 HP110N (scFv)
scFv: B1 scFv with Q233L, P236N
Affinity increase [1]: 0.2 fold | Kd [2]: 1200 nM

B50: AS170036 VL1VH1 HP58G (scFv)
scFv: B1 scFv with P184G, Q233L
Affinity increase [1]: 0.9 fold | Kd [2]: 320 nM
